The target in assay [1] is T1, human plasma fibronectin (human, UniProt P02751-8 32-2296, limits assumed).
T1 construct: Bought plasma protein; also called FN; human plasma FN
Description: competition ELISA, peptide 6 titrated 0-160 µM against FN binding to immobilized CD9. The protocol:
FIG. 2C illustrates the effect of titrations of Peptide 6 (0-160 μM) on FN-CD9 binding was evaluated. […] The ability of CD9-CHO-B2 cells to adhere to FN was compared with Mock-CHOB2 cells. CD9-CHO-B2 cells had increased adhesion to FN in the absence of integrin α5β1 expression when compared to Mock-CHO-B2 cells. […] A scrambled control (peptide 6S) had no significant effect on CD9-CHO-B2 cell adhesion (p>0.005).
All incubation periods for the CD9/FN binding ELISA lasted two hours at RT unless otherwise indicated. Immulon I (Dynatech) microtiter plate wells were coated with CD9 (2 μg/ml), His₆-rCD9 (2 μg/ml), BSA (10 μg/ml), or peptide (10 μM) in Buffer A. After one wash with Buffer B, plates were blocked with Blocking Buffer 1.1% BSA was included in steps from ligand overlay to addition of mAb conjugate to minimize non-specific binding. Titrations of human plasma FN in Buffer B were added to plates either alone, or in the case of competition ELISAs, with 0-160 μM synthetic peptide. Plates were washed three times with ELISA Buffer B, followed by incubation with a 1/1000 dilution of rabbit anti-FN antibody. After two washes with Buffer B and one wash with Buffer C, plates were incubated with 1/500 antirabbit IgG alkaline phosphatase in Buffer C for one hour at RT. After four washes with Buffer C, 1 mg/mlp-nitrophenyl phosphate substrate was added and the absorbance at 405 nm was recorded.
For orientation: In an ELISA, binding on a coated surface is turned into a signal by an enzyme label.

Assay [2] addresses T1, human plasma fibronectin. Description: cell-based or functional assay.

T1 sequence (P02751 other isoform, or with tags, fused parts or gaps limits assumed): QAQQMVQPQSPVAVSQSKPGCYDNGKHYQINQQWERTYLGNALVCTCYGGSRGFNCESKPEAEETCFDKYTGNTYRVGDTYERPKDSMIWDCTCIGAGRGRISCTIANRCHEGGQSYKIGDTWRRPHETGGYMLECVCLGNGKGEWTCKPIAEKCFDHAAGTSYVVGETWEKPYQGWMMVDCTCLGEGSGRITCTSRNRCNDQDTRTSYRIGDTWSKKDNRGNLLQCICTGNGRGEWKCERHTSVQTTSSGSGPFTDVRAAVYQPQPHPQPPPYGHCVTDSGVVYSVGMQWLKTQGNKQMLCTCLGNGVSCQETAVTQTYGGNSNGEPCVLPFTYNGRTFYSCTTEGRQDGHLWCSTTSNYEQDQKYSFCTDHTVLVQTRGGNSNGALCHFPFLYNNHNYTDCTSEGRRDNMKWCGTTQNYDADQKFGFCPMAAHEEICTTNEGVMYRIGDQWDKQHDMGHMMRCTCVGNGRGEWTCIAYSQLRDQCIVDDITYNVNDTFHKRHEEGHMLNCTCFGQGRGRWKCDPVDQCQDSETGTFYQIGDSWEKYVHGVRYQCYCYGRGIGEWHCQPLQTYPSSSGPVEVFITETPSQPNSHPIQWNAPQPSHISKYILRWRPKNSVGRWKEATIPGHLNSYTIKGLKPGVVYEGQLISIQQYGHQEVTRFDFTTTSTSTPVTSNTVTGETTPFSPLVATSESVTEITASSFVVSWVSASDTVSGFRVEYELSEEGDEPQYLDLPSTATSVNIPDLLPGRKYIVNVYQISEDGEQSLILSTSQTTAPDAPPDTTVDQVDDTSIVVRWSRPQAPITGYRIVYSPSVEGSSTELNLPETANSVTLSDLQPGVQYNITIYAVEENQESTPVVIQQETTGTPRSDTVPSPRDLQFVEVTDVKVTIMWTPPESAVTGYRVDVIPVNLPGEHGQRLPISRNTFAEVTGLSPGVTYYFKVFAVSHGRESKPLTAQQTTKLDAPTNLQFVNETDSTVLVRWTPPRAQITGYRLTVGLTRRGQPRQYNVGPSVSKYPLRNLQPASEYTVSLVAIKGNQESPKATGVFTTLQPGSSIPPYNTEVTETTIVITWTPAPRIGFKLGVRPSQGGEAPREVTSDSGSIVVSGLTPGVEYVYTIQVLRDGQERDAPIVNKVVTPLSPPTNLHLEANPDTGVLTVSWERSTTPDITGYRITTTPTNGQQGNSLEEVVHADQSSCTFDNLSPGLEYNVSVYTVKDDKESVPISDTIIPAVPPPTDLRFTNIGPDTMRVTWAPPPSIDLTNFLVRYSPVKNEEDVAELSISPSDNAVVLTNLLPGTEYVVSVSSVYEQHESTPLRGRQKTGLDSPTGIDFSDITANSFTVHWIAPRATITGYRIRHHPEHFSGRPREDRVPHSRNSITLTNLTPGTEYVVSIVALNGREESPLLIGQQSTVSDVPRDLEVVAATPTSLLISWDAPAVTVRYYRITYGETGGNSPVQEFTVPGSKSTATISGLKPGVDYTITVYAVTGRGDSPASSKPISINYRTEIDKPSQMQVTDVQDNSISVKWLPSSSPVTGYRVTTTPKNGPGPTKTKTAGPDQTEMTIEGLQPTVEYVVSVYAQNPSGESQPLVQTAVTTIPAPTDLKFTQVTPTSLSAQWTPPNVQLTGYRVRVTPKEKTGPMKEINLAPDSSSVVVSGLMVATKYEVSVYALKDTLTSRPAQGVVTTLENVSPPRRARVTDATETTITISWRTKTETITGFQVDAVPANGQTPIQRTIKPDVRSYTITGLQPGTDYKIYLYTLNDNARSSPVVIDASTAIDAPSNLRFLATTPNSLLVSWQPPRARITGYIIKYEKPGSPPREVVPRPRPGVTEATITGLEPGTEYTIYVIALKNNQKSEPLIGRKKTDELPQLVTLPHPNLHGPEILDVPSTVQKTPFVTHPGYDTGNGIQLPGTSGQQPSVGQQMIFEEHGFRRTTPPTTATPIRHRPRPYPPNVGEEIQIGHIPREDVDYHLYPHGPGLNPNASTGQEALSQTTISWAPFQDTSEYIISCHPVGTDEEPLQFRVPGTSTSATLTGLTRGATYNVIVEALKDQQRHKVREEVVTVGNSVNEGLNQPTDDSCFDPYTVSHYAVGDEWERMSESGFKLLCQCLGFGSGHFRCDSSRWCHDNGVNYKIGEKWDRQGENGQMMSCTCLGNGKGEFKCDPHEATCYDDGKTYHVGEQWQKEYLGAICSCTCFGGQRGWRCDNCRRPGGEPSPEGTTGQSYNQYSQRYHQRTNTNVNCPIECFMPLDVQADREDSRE

Consider PKKDVLETFTVKSCPDAIKEVFDNK (Synthetic peptide of CD9 EC2) [peptide 6], for which, in the assay with human plasma fibronectin [1], the “IC50 (read off the curve)” value is roughly 20 µM.

B1: CD9 Δ173-192 (receptor)
chain: MPVKGGTKCIKYLLFGFNFIFWLAGIAVLAIGLWLRFDSQTKSIFEQETNNNNSSFYTGVYILIGAGALMMLVGFLGCCGAVQESQCMLGLFFGFLLVIFAIEIAAAIWGYSHKDEVIKEVQEFYKDTYNKLKTKDEPQRETLKAIHYALNCCGLAGGVEQFISDICPKKDVFHIIGAVGIGIAVVMIFGMIFSMILCCAIRRNREMV
Take B1: the “reduction in haptotactic motility to FN” value in the assay with human plasma fibronectin [2] was determined as 45%.

B2: CD9 Δ113-228 (receptor)
chain: MPVKGGTKCIKYLLFGFNFIFWLAGIAVLAIGLWLRFDSQTKSIFEQETNNNNSSFYTGVYILIGAGALMMLVGFLGCCGAVQESQCMLGLFFGFLLVIFAIEIAAAIWGYS
As to B2, in the assay with human plasma fibronectin [2], the “reduction in haptotactic motility to FN” value amounted to 58%.

B3: CD9 Δ133-192 (receptor)
chain: MPVKGGTKCIKYLLFGFNFIFWLAGIAVLAIGLWLRFDSQTKSIFEQETNNNNSSFYTGVYILIGAGALMMLVGFLGCCGAVQESQCMLGLFFGFLLVIFAIEIAAAIWGYSHKDEVIKEVQEFYKDTYNKLFHIIGAVGIGIAVVMIFGMIFSMILCCAIRRNREMV
Regarding B3, in the assay with human plasma fibronectin [2], the “reduction in haptotactic motility to FN” value was found to be 64%.

Source of the values: patent US20040136985A1 (published 2004).
